Consider eight molecules from paper PMC9190237 (Biochemistry, 2022).

To fix the notation:
B2: Unmodified H3^(FAM) peptide (ARTKQTARKSTGG{K-FAM}) (peptide)
peptide: ARTKQTARKSTGGK(FAM)

One experiment concerns the target T1, UHRF1^PHD (Homo sapiens, UniProt Q96T88).
T1 sequence (Q96T88 298-366): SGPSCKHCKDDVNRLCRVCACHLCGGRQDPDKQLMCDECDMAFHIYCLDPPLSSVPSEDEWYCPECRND
The experiment is described as follows: Intrinsic tryptophan. It is filed as binding. To be noted: 5 μM peptide, 1 μM UHRF1^PHD.

For experiment [1], the target named is UHRF1^PHD (as used for tryptophan fluorescence) (human (by the printed accession)). The experiment is described as follows: intrinsic tryptophan fluorescence quenching.
For experiment [2], the target named is T2, UHRF1^TTD-PHD (His-tagged TTD-PHD domains of UHRF1; residues 133-366) (human (by the printed accession), UniProt Q96T88-1 133-366).
T2 sequence (looked up): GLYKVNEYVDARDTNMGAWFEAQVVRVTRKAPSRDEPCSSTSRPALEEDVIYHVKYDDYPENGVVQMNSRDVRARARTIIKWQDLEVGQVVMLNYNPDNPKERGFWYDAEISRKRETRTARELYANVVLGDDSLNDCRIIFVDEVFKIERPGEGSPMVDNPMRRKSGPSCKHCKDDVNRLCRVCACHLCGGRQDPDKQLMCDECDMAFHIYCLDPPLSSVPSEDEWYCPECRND
The experiment is described as follows: fluorescence polarisation. For orientation: Polarisation of emitted light reports the rotation of a fluorescent probe.

For experiment [3], the target named is T3, Full-length UHRF1 (N-terminal 6xHis tag) (human (by the printed accession), UniProt Q96T88-1 1-793).
T3 sequence (looked up): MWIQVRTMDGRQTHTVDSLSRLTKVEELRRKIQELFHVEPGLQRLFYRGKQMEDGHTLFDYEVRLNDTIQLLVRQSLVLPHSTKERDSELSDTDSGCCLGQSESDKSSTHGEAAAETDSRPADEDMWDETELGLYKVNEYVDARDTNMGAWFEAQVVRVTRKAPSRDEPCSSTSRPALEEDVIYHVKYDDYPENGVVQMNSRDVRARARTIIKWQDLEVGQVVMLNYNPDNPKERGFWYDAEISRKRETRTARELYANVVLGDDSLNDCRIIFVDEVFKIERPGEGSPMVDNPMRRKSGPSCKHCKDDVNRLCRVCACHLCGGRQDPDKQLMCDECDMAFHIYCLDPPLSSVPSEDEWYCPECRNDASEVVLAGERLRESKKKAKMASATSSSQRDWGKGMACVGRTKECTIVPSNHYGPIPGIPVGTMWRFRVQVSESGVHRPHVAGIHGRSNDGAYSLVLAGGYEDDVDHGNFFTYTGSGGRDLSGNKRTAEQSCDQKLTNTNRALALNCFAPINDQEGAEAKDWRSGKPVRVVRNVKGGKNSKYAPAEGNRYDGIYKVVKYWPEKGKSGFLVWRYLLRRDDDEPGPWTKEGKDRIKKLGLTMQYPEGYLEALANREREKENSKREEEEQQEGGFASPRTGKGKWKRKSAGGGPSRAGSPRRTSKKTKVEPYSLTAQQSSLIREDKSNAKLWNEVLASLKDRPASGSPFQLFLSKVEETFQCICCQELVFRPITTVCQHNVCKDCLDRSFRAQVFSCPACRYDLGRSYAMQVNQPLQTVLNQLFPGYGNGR
The experiment is described as follows: fluorescence polarisation.

The target in experiment [4] is T4, UHRF1^TTD (TTD construct alone; residues 127-285) (human (by the printed accession), UniProt Q96T88-1 127-285).
T4 sequence (looked up): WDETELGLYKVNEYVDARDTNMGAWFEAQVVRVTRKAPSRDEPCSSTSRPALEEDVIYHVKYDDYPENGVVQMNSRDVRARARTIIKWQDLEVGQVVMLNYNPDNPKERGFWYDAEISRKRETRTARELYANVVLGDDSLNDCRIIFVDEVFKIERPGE
The experiment is described as follows: fluorescence polarisation.

Experiment [5] deals with T2, UHRF1^TTD-PHD (His-tagged TTD-PHD …). The experiment is described as follows: AlphaScreen or HTRF.
Experiment [6] deals with B2. The experiment is described as follows: fluorescence polarisation.
Experiment [7] deals with T5, GST-UHRF1^PHD (residues 298-366) (human (by the printed accession), UniProt Q96T88-1 298-366).
T5 sequence (looked up): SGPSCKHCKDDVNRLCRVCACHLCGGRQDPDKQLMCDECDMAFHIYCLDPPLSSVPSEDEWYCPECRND
The experiment is described as follows: fluorescence polarisation.

For experiment [8], the target named is T2, UHRF1^TTD-PHD (His-tagged TTD-PHD …). The experiment is described as follows: fluorescence polarisation. This is another data set of the same source.

Where no end group is shown, it is not given here. FAM = fluorescein

For “ARTKQTAR{K-me3}STGG{K-FAM} [H3K9me3^(FAM)]”, on UHRF1^PHD, the “W358 tryptophan fluorescence quenching of UHRF1^PHD” value was ~ 50%.
As to “H3K9me3^(FAM) peptide (ARTKQTAR{K-me3}STGG{K-FAM})”, the percent quenching of W358 fluorescence in [1] came out at 50%.
As to ARTKQTARKSTGGK (trimethyl-lysine at K9; FAM (fluorescein) on K14) [H3K9me3^(FAM) peptide (ARTKQTAR{K-me3}STGG{K-FAM})], the binding result in [2], in experiment [3] and in [4] was “binds” in each case.
In the case of ARTKQTARKSTGGKW (trimethyl-lysine at K9; biotin on K14) [H3K9me3^(Biotin) peptide (ARTKQTAR{K-me3}STGG{K-biotin}W)], the binding result in [5] was “binds”.
For {FAM}-GKGKWKRKSAGGGPS [PBR^(FAM) peptide ({G-FAM}KGKWKRKSAGGGPS; UHRF1 polybasic region, residues 643-657)], in experiment [4], the binding result is “binds”.

B1: GST-UHRF1^(PHD; 337A) (domain or fragment, human (by the printed accession), UniProt Q96T88-1 298-366, looked up)
chain: SGPSCKHCKDDVNRLCRVCACHLCGGRQDPDKQLMCDECAMAFHIYCLDPPLSSVPSEDEWYCPECRND
In the case of B1, the “fold impairment of binding against GST-UHRF1^PHD” value in experiment [6] was approximately 12 fold.
Consider B2, for which the binding result in experiment [7] and in experiment [8] was “binds” in each case.
ARTKQTARKSTGGKW (trimethyl-lysine at K9) [H3K9me3 peptide (unlabeled; ARTKQTAR{K-me3}STGGKW)]: the binding result in experiment [5] is “binds”.
